Experiment: soluble fraction after stress (log2 fold change); higher = more stays soluble; pooled small domains, quantitative proteomics
Settings: stress: 50 degC
Outline: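 Quantitative proteomics served as the high-throughput read-out for pooled custom libraries of small protein domains. Each was stressed at 50°C. Aggregation propensity is expressed as the base-two log fold change in soluble protein after stress. A higher value means a larger share of the protein remains in solution.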

| Sequence | soluble fraction (log2) |
| --- | --- |
| HMNERIKSLRKALGLTQQEFADKLGISRGNIGAYEVGKNAPSDAVISLIVRIFNTNENWLRTGEGEM | -0.145 |
| HMIGMDMQELIGRYKGDPDEMGKIELAAMSMLKLSEDMSSDHVLQKSKLRQDGLWLLKYVQE | -0.551 |
| HMDIGTRQRIIAAAMELFRQKGMDGMSMRELAERAGVNKGLLHYYFTTKEAIFREVFVHQVEM | -0.15 |
| HMHSESAAHQRTSVELFARIPETGNLQSAQRHFDVINQFGRFPHRNKILQRPSSEQEEAFLRQPGSG | 0.0792 |
| HMNIDKLVGSTGTVVRSVTPDTAGLVRVNDEDWRASAEEILYERDAIVVEGIEGVTLIVSKLS | -0.43 |
| HMSKNDLAGDEADVYKLLSVETGKPISDLVNRLPFGKSKTREILNTLAEKGFVYISGSGRGTKYHR | 0.0557 |
| HMSTPTVDTKTKLDLYNLLYKKDLNYLDAYNFVLDNFGSDNIDIMFKMLGLDFTNWVIENKPE | 0.0375 |
| HMNTDIHRLLDEAFVRVDMTPDAQHLKEEIRANLVARVDELEASGVPSADAARRAIAELGDVRELL | 0.17 |
| HMSDAKKRAFSKDEILYSLKNRPFTSFDIESLFDDESKKTFIGLLDKGEISEKKVAGTIFYYLR | -0.0659 |
| HMTQMSVLFSELEAKDAATIADKLRERNIPYELSNNGSTILIPQEVLHDTRLSLASEGLPES | -0.0936 |
| HMSDKEDIDKYLLTYGDLLFNRTNSSEWVGKTAIYRGEVSAIYAGYLIRIRSFLDAEYLNSVMNSKYA | -0.235 |
| HMQHRSRALHLQEELVRRYYDQAIAPFMIFWEMKANVTLDQLKELRAVVSPSLNEHPYTKQLDEYIRLAE | -0.505 |
| HMQNNIEFTVLEEDAQKRLDVLLSEKTALSRSASASLIEEGGVLVNGRKEPKKYKPVRGEIITAILPE | -0.0707 |
| HMTGLSFEEKDLLGNALKLLDETERRIVILHATSGLKHREIAKQLDIPLPTVLSKYTRAIKKLKKHME | -0.0942 |
| HMPRFDINFKVGEVVTIKGGSFDGQQGEISEIDHEHGKIKVMLEVLGRLTPVEVEHTEIEKI | 0.176 |
| HMQINDSSVVQKAVNDVIDQNSKAVSDYWDGKEGAAKFLMGQVMKLTRGQANPDLANQLILTRLQQERV | 0.264 |
| HMDELVYVPNITGKTVEEARTELQKRDLGLNIAGHQFSDEFGKGRIISQDPAAGSRLKVNRSISVIVSSGQ | 0.206 |
| HMETDNEKVRTAFQNGLAAYREQDWDRAEAAFGAVLAEMPEDRPSLVYLERIAHLRKKAPPGAWDGVWI | -0.0616 |
| HMSYGDLTGRTVVITGASKGIGARASRVLAQAGASVVGLARSVDELTALKYDLENDGLSFDFG | ≥ 0.62 |
| HMERPYNGKQMEYHEGGVEKKETLFVEGGLSRVIQWDESGQKRSEVNISPTGVRREQYWDSSGKAIAKPS | 0.228 |
| HMLTLTNREKQVLVYIAKGHQVAQIAYELKLSGHTINGYIKTIYQKLHISSRAEAALLAQQYGL | -3.56 |
| HMLPSWPGVSEFEVARLLRRGRARGSLTLDEVIDVVRDAELTSELIAGIRSSLRAEGIDFEET | -0.475 |
| HMKYPVYLQLADLIERKINKNEYPLGSKIPSERELIDAFGISRMTVRKAIEVLIEKGLLTRQHGKGTYVSQ | -1.29 |
| HMKIDNIIIYITGGVKKEGVYELPDGSRISDAIEQAEGLKANADTSSINLAYKLEDGMKIKIPLQGEN | -0.0298 |
| HMIADDLKSLEGVDQDMLRDLAEAGINTRDDLAELAIDELIEITGVSTEEAEKVIMAARAHWFEEES | 0.463 |
| HMDFDQELFDKIVEATMDEARAAMDTDDKNVREERWNKLIEHWHELFLEDYPEMDKYLEEITYKFQKNPAT | -0.302 |

| Sequence | soluble fraction (log2) |
| --- | --- |
| HMSGEITVPNLIGVEAIQAKTLLIQAGFLIKEFYDLDSTQPAGVVIRQAPEAGTTQTIGKSVTITINKQ | -0.00644 |
| HMKRLPFSFAKRFGVVVEDGEPPIVHHRDGASAETLLEVRRRLGQVFTLQRHDAEAFERLLTQAYQR | -0.383 |
| HMLQVSDENFVVELVQKVLLDNPSSVQEYKNGKESVLQFLIGQAMKASKGTANPQIVKEIMLKLL | -0.314 |
| HMQEAGKWLKKLRTERKITLEQLSKKTGLSVGFLSQFERGLTSIAIDTLEKIAAVFNVTIDYFISP | 0.0423 |
| HMTRRGPLTEGDRVQVRDPKGRFHQVILVRGGRFQSNRGGFNHDDVIGRPDGQVIITDEGRQFQIL | 0.512 |
| HMEHDYGLSGREREVLELMVQGLVKKEIADRLALSYHTVDNHLRSIYAKLQVHTRGGAVAKALSEHLVPP | 0.217 |
| HMGVARGQAQVTTRQHVVQPGETLYQISKQYGVTVAEILRYNADIEDNTVKVGQTLQIPTPLP | ≥ 0.62 |
| HMPYPSPADLARMDELIAWVKDEGRLPRDRSGQRSERSMARWLAARRREAAEGTLDPAYRDGLAQVPGWR | -0.368 |
| HMNKTEIISILEKIVLPTQIRNINIFGSEVIIDLNIDNPSLHAKKKLEKSIINSFDKNHKIIINFNVE | -0.232 |
| HMGMNSGQADFRGISLALSVDAEAEAQRLFTALADGGQVQMPLSKTFFSPAFGMVADRFGVGWMVVTN | 0.247 |
| HMNEAMIMIDLKGKSRDEAVKELDELNLKYRFTGNGIVKDQKPKAGEEINSDTVVEVELSEIK | 0.114 |
| HMELDREALSDGLRRLSQLLAEDDIESRTLFRELAPGLKEQLGDDAVEKLAGHISRYEFEQAGALLATSG | -0.0341 |
| HMSRREEALIALAQRVARQVARTKQPVTLEPMPANERRVIHVALRDNPDVETRSSGEGDQRRVTVYPRQ | 0.05 |
| HMGAWQQTGFFRNRENAESLAEVLRQRGFSPVVREDTRPSGTVYYAVLVPDDGTTAARLKDAGIDSYPV | 0.0695 |
| HMSDKTSLTDDDKALINSMLPDYDKYPSVAKLQAVEIAKSSSKMATLLMLDERYNETVSEALE | 0.0209 |
| HMVIPATPTARRAKIAGLLADRSVRSQGELLTLLADAGIEVTQATLSRDLEALGAVKVRDGRGLVYAVPG | -0.0411 |
| HMQVSIGERVKLARMSAGLNQRQLGKEMGMSAMAISKYETGEVVPNSRVLIQLSQTLHVPLDFFFRS | -2.69 |
| HMEQQEFIVPHDSEGQRLDLFLVSVLGTHSRSQIRKLIVNGHVKLENRAPRPNLPVRAGESVVVSMPEPT | 0.121 |
| HMKELLTKQQREEILETVKTKTPKDFGYTAEHWTTGFLGKWIEEHYEVEYKSKTSLYLVFKKASFTYHKPG | 0.228 |
| HMLKKRKPMSGVGVIVKGMLTGTVTGTDGSYALKARPNDELSFSFLGYKTQEVFVGSKSTIDITLVDEA | -0.13 |
| HMEEIQLILAKNLKSIREKEKLSLEKVSQLTGVSKTMIGQIERGDSSPTLTTIWKIANGLKVSFTSLINNP | -2.01 |
| HMTLYQIGDKVVHPMHGAGVIDSVVQRKVSGQVQEFYLLKLSVGNMVVMVPTDNTGEIGMRP | -1.01 |
| HMEQVTMSNFLDKWGTSTKSPNAWYTSLSPMQKAEAKLLKEESGLTWNKWYEKNIYVGDGTN | 0.249 |
| HMSYTAYLSQELGDMSREIQSELLKKGYNGSSSFTIVRTYMGSSVKFSVYNANNGELITSKTINM | -1.93 |
| HMVPLSMLTEGQIFRGQVLDITSQGIKIQLNPEQILFARLGEQVELNIGQQMAFQVRENKGDQLIIHPMQN | 0.0382 |
| HMAYLTVPAVIAKDTKKSIQLLESKGFEVVIQDSIYTDTLARGTVIKQLPDPNATVKINRTVYLTVNRYTP | -2.1 |

| Sequence | soluble fraction (log2) |
| --- | --- |
| HMDKEIKILKEKRLDDVQQAIRELSPQKRRVVEMKLYHNSTNQEVADKLAISVNTVKSLYTSALHDLRRIL | -0.139 |
| HMKALPSAEDVALARESGRVLSTVLQTRAETQQIDFHDDKGAVRSVTLPTTALRLLLDVLTEIGQGNAV | -0.23 |
| HMDHKSSYWSVKEANLFPELLKQFGSQWSLISDKLGTKSTTMVRNYYQRNAAQLGWKSVVEEADFKRNA | -0.436 |
| HMAGSGLPVPRFVSLADDRVNARAGPGFRFPINWVYLRKGFPVEVVDEFGPWRRIRDIDGVAAWIHLSMLS | -0.85 |
| HMTSLVRTSNLDGFEPLARSIGVDPVMELMRFGIPPDALIRENMFISFIGFIRLLEHTALAG | 0.103 |
| HMVSLTGEWRPSKDALDILITKGGINPNFIDDAVPEFILYWRDRGDVSNTWDSKFIQHVRRQWQFYTGI | -2.93 |
| HMDPLGGFTKGDVDMDGRVAVNDAVMVLKNAIKLMELDTQQLMLADADNDGKITVNDAVMILKKAIKLID | -0.111 |
| HMVKLDDLTGQDKASAEAAISNLGLKYSEQQEYSDEIEEGKVTRTDPGAGSTSLKAGDTVTVYISRGPE | 0.21 |
| HMDYYASVDQVWRELGLAGPARRALIDDGLFKLSDLRKTSLAAVKELHGMGPNAIRILTTEMKKADLSFR | -2.25 |
| HMADENIELRKAGLKVTLPRVKILQILEAAKEPHMSAEDVYKALMEANEEVGLATVYRVLTQFESAGL | -0.267 |
| HMQNKRQEQLLALLAERRDYMTSRQLAEILQVSDRTIRSDVEAINRRSSPPPIESNVRQGYRLNPEA | 0.0852 |
| HMEYSYKLIDLLVDRFSEEGVDPEEAREYINLFHRFSQGLDPDKRDITKYSWDELYRTVNDKKDS | 0.107 |
| HMAMSAGEVVERIREHVGHPATIKELMRVLAIPNEERYRFRRRIKQLVEAGELIRIRGNRYGLADR | -1.85 |
| HMPREQQENVYLLEKAKRLYEEYLGDQRQTIGHALAQFERVLESQDPAAIRRAQKEFGEFLERYDG | 0.102 |
| HMEQIGSIIKDIRKKNNLTQNEFASILGVTFQAVSKWENDKSIPDITILKDISNKFNVDLNYLISG | -0.0472 |
| HMTLAEEFNNLNGKVITRETLESLLVKAEKEQNSTISNRIRKVLQAYTADTFLIELQHTESA | 0.0776 |
| HMQVPVNVSMEILDWVIAHIKIDALPNQIREYLNLWVNGEKEPTFNQVEKVSKATGIPLGYFFLQTPPIED | -1.66 |
| HMNPEAFIQTLKQILSTYEKNDPIYLQEIKADLVKKFRIEIPINALETYLKENGYSNIYLKR | -0.133 |
| HMEKLLTTRQSQIFELAKRKGYWNIPREISITQLAQLTGSSKSTISVMLHAIESKIVDTFYDEI | -3.2 |
| HMDDDDPDQEIAQYYEKLRAMNPDEETKQKLSDEINKLSKMMYSSQEAMVSRNYLDTVFSLPWHQF | -0.0959 |
| HMYEVDGLGIRIAQLRKKQDLTQEAFARTLGVSPQAVSKWETGIGYPDITLLPQIAKELGVSIDQLFGRN | 0.065 |
| HMEKIDYLSIGHRLRAYRIASSLKAEDVAESLGISRAAVYRLEKGEIVKIETLDNLARLLNTSLSSLLG | -2.94 |
| HMAKRKTEKTSVLEEIDGVGKARARALLARFGGLSGVKAASPEELRTVRGITPEIAENIRRYFQ | 0.121 |
| HMGKRRGLKVAEEVFADRGYNPDGTLVNRSLPGAFVKDPDEAIARVIKMVKTKKVTAVNGEEIDIAADSI | 0.132 |

From the domain aggregation screens of Martell et al. (2025)
